The test concerns the target 牛血清蛋白 (BSA) (bovine, UniProt P02769 25-607). The test can be described thus: ELISA.

Sequence of 牛血清蛋白 (BSA) (P02769 25-607 limits assumed): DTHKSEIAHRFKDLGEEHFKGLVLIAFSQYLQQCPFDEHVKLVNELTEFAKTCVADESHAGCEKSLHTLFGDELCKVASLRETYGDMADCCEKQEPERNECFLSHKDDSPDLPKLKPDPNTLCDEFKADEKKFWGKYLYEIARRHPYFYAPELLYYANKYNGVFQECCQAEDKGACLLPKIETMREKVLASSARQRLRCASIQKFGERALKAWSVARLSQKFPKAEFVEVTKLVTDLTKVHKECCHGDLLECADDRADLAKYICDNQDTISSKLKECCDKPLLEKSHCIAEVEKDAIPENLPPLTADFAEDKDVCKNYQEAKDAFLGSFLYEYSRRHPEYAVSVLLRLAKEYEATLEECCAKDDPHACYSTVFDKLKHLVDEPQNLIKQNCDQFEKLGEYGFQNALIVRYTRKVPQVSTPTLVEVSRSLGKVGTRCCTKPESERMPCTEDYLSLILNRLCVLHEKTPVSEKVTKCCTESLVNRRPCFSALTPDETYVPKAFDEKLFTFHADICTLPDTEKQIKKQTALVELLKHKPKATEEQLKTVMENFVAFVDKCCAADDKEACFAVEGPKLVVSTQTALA

B1: F1 Fab片段 (purified Fab fragment of anti-H1N1 monoclonal antibody F1) (Fab, V domains shown)
VH: QVQLKESGDDLVKPGASVKLSCKASGYTFTNYWINWIKQRPGQGLEWIGRTAPGSGSTYYNELFKGKATLTVDTSSSTAYIQLSSLSSEDSAVYFCALSTGTGALDYWGQGTSVTVS
VL: DIVMTQSPLSLPVSLGDQASISCRSSQSLVHSNGNTYLHWYLQKPGQSPKLLIYKVSNRFSGVPDRFSGSGSGTDFTLKISRVEAEDLGVYFCSQSTHVPWTFGGGTKLEIKR
notes: also called 抗体F1Fab; 单克隆抗体F1
For the molecule B1, the binding result was “no binding”.

(Values after patent CN110845607A (UNIV WEIFANG MEDICAL; SHANDONG KUANHEZHENG BIOMEDICINE CO …, dated 2020).)
